From publication PMC3325211, “Mutations in MITF and PAX3 Cause “Splashed White” and Other White Spotting Phenotypes in Horses”

Biological target: MITF N310S (DNA-binding fragment) (UniProt Q95MD1 112-207, N149S)
Test: EMSA; 5 mM MgCl2; 2.0 uM protein end point; reduced by about 80%; 20 mM Tris, 50 mM NaCl, 5 mM MgCl2, 1 mM DTT, 33 ug/ml BSA, pH 7.4, on ice 30 min; 6% native PAGE in 0.5x TBE
Conditions: protein: recombinant; (Ni-NTA purified); chain copies: 2; label: radioactive label

Chain of MITF N310S (DNA-binding fragment) (Q95MD1 entry or part of it N149S | N310S N310S): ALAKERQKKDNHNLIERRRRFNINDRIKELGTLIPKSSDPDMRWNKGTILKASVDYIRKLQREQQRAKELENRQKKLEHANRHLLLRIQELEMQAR

B1: M-box oligonucleotide (dsDNA)
DNA 1: GGAAAGTTAGTCATGTGCTTTTCAGAAGA
DNA 2: TCTTCTGAAAAGCACATGACTAACTTTCC
  binding signal: ~20 % of wild-type binding
